Reference: article PMC11093599 (The Journal of Clinical Investigation, 2024)

T1: AARS1^455 (Homo sapiens, UniProt P49588)
T1 construct: catalytic domain, residues 1-455, purified recombinant; tags and host only in supplement
T1 sequence (P49588 1-455): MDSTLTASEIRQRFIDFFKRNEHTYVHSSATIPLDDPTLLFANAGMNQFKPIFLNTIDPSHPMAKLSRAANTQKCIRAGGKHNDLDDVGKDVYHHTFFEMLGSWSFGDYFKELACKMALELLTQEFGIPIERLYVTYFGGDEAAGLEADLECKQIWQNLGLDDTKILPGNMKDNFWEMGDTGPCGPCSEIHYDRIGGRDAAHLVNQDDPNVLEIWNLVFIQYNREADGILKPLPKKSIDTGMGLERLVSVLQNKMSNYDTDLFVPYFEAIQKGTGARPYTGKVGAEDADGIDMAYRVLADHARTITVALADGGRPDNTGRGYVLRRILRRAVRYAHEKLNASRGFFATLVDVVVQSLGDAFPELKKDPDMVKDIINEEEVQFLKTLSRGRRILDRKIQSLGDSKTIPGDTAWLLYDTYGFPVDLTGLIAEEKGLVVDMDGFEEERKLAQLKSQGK

B1: AARS1 promoter probe (dsDNA)
DNA 1: CAGACAGGGCCTCGCTCTGTCGCCCAAGGAATGCAGTGTCACGATCAGGGCTCACTGCAG
DNA 2: CTGCAGTGAGCCCTGATCGTGACACTGCATTCCTTGGGCGACAGAGCGAGGCCCTGTCTG

How the values were obtained:
AARS1^455 = target: T1, AARS1^455; experiment: in vitro histone lactylation, pan-Klac immunoblot / mass spectrometry; format: biochemical; conditions: lactate and ATP present; dose-dependent; construct in Supplemental Figure 1F not told
TEAD1 = TEAD1 (UniProt P28347 1-426); experiment: EMSA; 10 mM Tris-HCl pH 7.5, 50 mM KCl, 1 mM DTT, 2% glycerol, 25 C, 1 h; conditions: protein: recombinant; (HS-TEAD1 in pull-down)
Chain of TEAD1 (P28347 whole entry): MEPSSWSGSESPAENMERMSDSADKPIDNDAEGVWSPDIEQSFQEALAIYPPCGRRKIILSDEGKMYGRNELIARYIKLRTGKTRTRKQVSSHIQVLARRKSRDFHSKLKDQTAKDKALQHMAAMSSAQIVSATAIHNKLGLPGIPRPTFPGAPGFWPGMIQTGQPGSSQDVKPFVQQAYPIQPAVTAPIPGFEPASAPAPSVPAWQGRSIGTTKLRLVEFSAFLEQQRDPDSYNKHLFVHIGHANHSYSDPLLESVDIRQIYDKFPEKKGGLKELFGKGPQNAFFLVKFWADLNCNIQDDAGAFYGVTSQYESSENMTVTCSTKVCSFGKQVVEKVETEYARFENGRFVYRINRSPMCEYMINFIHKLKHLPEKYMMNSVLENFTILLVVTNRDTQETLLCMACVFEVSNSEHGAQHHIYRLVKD

YAP (1-291) = YAP (1-291) (UniProt P46937 1-291); experiment: EMSA; YAP alone; 10 mM Tris-HCl pH 7.5, 50 mM KCl, 1 mM DTT, 2% glycerol, 25 C, 1 h; conditions: protein: recombinant; tags: MBP
TEAD1;YAP (1-291) = TEAD1;YAP (1-291) (human?;human?, UniProt P28347;P46937 1-426;1-291, |); experiment: EMSA; supershift of probe by YAP-TEAD1; 10 mM Tris-HCl pH 7.5, 50 mM KCl, 1 mM DTT, 2% glycerol, 25 C, 1 h; conditions: protein: recombinant;recombinant; (HS-TEAD1 in pull-down); copies: 1;1

Row | Molecule | inhibition (AARS1^455) | binding result (TEAD1) | binding result (YAP (1-291)) | binding result (TEAD1;YAP (1-291))
1 | Nc1ncnc2c1ncn2[C@@H]1O[C@H](COP(=O)(O)O)[C@@H](O)[C@H]1O [AMP] | inclusion of PPi, AMP, and the synthetic lactyl-AMS |  |  | 
2 | O=P(O)(O)OP(=O)(O)O [PPi] | inclusion of PPi, AMP, and the synthetic lactyl-AMS |  |  | 
3 | B1 |  | binds | no binding | binds
